US20080219971A1 (VACCINEX, published 2008)
Numbering of substitutions follows the chain as printed. Names may count otherwise.

T1: Human CD100 (human, UniProt Q92854 22-734, limits assumed)
T1 construct: also called SEMA4D; Hu CD100
T1 sequence (looked up): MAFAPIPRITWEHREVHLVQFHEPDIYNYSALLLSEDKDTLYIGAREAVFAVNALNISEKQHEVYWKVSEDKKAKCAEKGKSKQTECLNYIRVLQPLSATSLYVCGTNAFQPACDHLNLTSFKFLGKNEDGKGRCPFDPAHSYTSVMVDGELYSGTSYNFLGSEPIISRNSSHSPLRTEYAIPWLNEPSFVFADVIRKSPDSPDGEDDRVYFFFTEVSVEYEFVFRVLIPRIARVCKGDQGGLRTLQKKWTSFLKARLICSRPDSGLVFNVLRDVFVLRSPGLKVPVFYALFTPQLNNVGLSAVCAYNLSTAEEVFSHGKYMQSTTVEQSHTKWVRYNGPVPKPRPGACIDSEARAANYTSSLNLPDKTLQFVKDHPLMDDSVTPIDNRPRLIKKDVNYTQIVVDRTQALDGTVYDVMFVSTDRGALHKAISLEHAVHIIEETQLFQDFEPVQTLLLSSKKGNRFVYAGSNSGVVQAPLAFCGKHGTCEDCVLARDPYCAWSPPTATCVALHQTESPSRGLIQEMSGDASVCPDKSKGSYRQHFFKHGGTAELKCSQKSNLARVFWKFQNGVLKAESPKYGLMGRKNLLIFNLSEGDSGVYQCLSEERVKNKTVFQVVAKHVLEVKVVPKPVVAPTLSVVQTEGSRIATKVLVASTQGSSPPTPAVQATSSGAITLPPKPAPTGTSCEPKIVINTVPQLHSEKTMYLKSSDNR

B1: MAb 1808 (antibody, human IgG4, V domains shown)
VH: QVQLVQSGAEVKKPGSSVKVSCKASGYTFTDYYMDWVRQAPGQGLEWMGRVNPYHGGATYNQKFKGRVTITADKSTSTAYMELSSLRSEDTAVYYCAREENSYDGYYGMDYWGQGTLVTVSS
VL: DIVMTQSPLSLPVSPGEPATINCKSSQSLFNSGNQKNYLAWYLQKPGQPPKLLIYGASTRESGVPDRFSGSGSGTDFTLTISSLQAEDVAVYYCQNDHTYPYTFGQGTKLEIK
notes: Humanized BD16, fully human frameworks, human IgG4; also called H1651/L284
B2: MAb 2191 (antibody, V domains shown)
VH: B1 VH with K23T, D104T
VL: B1 VL
notes: Double mutant of H1651 with L284; also called H1651 K23T D104T with L284

Key:
[1] = target: T1, Human CD100; test: affinity testing, reference value of MAb 1808 on the same day; unit not printed (nM as in Table 3); MAb 1808 reference on the day MAb 2208 was measured
[2] = target: T1, Human CD100; test: affinity testing, reference value of MAb 1808 on the same day; unit not printed (nM as in Table 3); MAb 1808 reference on the day MAb 2144 was measured
[3] = target: T1, Human CD100; test: affinity testing, reference value of MAb 1808 on the same day; unit not printed (nM as in Table 3); MAb 1808 reference on the day MAb 2117 was measured
[4] = target: T1, Human CD100; test: affinity testing, reference value of MAb 1808 on the same day; unit not printed (nM as in Table 3); MAb 1808 reference on the day MAb 2139 was measured
[5] = target: T1, Human CD100; test: affinity testing, reference value of MAb 1808 on the same day; unit not printed (nM as in Table 3); MAb 1808 reference on the day MAb 2191 was measured
[6] = target: T1, Human CD100; test: affinity testing, reference value of MAb 1808 on the same day; unit not printed (nM as in Table 3); MAb 1808 reference on the day MAb 2220 was measured
[7] = target: T2, huErb2-Fc (human, UniProt P04626 23-652); test: ELISA
T2 construct: Negative control antigen; also called huErb2-Fc antigen

[8] = target: T3, human serum albumin (human, UniProt P02768 25-609); test: ELISA
T3 construct: Negative control antigen

[9] = target: T4, BSA (UniProt P02769 25-607); test: ELISA
T4 construct: Negative control antigen

[10] = target: T5, streptavidin (UniProt P22629 37-163, limits assumed); test: ELISA
T5 construct: Negative control antigen

[11] = target: T1, Human CD100; test: affinity testing, reference value of MAb 1808 on the same day; unit not printed (nM as in Table 3); MAb 1808 reference on the day MAb 2216 was measured
[12] = target: T1, Human CD100; test: affinity testing, reference value of MAb 1808 on the same day; unit not printed (nM as in Table 3); MAb 1808 reference on the day MAb 2125 was measured
[13] = target: T1, Human CD100; test: affinity testing, reference value of MAb 1808 on the same day; unit not printed (nM as in Table 3); MAb 1808 reference on the day MAb 2163 was measured
[14] = target: T1, Human CD100; test: ELISA method of Friguet et al.; column head 'Affinity (nM) IC50 ELISA'; antigen not named
Procedure: Antibody affinity was measured according to the ELISA method described in Friguet et al. (1985) J Immunol Methods 77(2):305-19.

[15] = target: T1, Human CD100; test: affinity testing, reference value of MAb 1808 on the same day; unit not printed (nM as in Table 3); MAb 1808 reference on the day MAb 2202 was measured
[16] = target: T1, Human CD100; test: affinity testing, method and unit not printed in Example 10 (nM as in Table 3); mutant value, before the parentheses

T4 sequence (P02769 25-607 limits assumed): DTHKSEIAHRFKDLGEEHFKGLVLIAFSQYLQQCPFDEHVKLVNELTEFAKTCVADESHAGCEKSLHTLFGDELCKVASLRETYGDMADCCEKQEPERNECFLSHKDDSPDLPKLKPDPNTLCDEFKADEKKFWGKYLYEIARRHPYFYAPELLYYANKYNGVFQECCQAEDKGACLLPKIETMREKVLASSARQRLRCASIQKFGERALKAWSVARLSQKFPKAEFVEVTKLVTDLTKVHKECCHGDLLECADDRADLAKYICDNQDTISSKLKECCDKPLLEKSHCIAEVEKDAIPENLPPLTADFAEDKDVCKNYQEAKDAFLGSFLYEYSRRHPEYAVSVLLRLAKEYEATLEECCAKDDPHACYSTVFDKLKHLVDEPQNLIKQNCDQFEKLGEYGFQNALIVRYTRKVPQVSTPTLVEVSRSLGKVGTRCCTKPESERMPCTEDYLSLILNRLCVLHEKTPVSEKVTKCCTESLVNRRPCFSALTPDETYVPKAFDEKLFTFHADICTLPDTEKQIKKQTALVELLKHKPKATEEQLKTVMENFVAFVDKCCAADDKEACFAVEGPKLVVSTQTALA
T3 sequence (P02768 25-609 limits assumed): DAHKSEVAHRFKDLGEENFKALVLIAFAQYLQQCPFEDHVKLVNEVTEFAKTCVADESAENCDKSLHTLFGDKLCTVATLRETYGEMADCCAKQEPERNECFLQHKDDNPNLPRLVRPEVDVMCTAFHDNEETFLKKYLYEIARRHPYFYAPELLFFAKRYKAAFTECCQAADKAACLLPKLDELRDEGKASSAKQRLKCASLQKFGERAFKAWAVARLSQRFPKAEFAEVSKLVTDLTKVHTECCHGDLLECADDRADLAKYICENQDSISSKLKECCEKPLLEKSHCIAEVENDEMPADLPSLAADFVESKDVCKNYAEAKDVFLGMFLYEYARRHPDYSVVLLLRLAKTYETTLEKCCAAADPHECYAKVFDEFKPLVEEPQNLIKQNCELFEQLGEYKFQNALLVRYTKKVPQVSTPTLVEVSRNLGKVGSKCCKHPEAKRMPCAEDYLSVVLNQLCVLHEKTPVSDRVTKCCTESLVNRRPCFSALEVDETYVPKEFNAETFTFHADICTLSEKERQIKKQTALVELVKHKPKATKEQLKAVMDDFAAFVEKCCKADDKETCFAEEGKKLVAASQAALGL
T5 sequence (P22629 37-163 limits assumed): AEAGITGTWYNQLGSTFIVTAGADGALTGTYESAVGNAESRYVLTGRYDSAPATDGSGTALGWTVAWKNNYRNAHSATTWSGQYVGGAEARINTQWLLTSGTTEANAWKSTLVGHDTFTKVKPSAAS

Row | Binder | Kd [1] [nM] | Kd [2] [nM] | Kd [3] [nM] | Kd [4] [nM] | Kd [5] [nM] | Kd [6] [nM] | binding result [7] | binding result [8] | binding result [9] | binding result [10] | Kd [11] [nM] | Kd [12] [nM] | Kd [13] [nM] | Kd [14] [nM] | Kd [15] [nM] | Kd [16] [nM]
1 | B1 | 0.12 | 0.5 | 0.57 | 0.71 | 0.13 | 0.12 | no binding | no binding | no binding | no binding | 0.12 | 0.57 | 0.12 | 0.13 | 0.12 | 
2 | B2 |  |  |  |  |  |  |  |  |  |  |  |  |  |  |  | 0.09
